According to US20130251714A1 (Sanofi, published 2013):

T1: cynomolgus CXCR5 (on cynomolgus B cells) (cynomolgus monkey, UniProt G8F5K4 1-372)
T1 construct: also called cyno CXCR5
T1 sequence: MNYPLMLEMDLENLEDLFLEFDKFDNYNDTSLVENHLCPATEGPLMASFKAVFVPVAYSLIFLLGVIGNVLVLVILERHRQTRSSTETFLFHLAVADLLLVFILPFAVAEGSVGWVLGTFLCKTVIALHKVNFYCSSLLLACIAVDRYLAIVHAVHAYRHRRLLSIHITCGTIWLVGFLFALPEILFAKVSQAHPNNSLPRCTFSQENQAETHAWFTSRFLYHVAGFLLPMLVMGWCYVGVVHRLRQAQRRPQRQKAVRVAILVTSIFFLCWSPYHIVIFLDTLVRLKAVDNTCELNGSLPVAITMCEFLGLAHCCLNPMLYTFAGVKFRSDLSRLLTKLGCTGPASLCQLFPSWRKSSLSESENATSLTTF

T2: N-terminal EC region of human CXCR5 (amino acids 1-59), synthetic peptide with a terminal biotin tag (human, UniProt P32302 1-59, terminal biotin tag)
T2 construct: range 1-59; also called biotinylated human peptide
T2 sequence (peptide, looked up): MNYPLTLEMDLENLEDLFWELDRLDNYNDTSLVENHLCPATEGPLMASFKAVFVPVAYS

T3: un-tagged human CXCR5 N-terminal peptide (amino acids 1-59) (human, UniProt P32302 1-59)
T3 construct: range 1-59
T3 sequence (peptide, looked up): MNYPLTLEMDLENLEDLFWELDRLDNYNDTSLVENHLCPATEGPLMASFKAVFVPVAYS


Columns and labels:
[1] = target: T1, cynomolgus CXCR5 (on cynomolgus B cells); assay: FACS on cynomolgus PBMCs (CD20+ B cells)
Procedure: Cynomolgus (cyno) monkey whole blood was obtained from Bioreclamation, Inc. (Hicksville, N.Y.). The blood was shipped in BD Cell Preparation Tubes (CPT) post-centrifugation. The cyno PBMCs contained in the plasma layer were removed from the CPT tube into a 50 ml tube leaving the gradient gel layer undisturbed. The tube was washed with 5 ml PBS to completely extract all the cells and the wash was added to a fresh 50 ml tube. The cyno PBMCs were centrifuged at 1200 RPM for 10 minutes at 4° C. The pellet was resuspended in 1 ml BD FACS Stain buffer (BD). One million cells were used per assay. One μg of mouse anti-human CXCR5 monoclonal antibody (purified) was added to 50 μl PBMC and allowed to bind for 20 minutes at 4° C. Cells were washed 2 times with BD Stain buffer. Fifty μl of second antibody, goat anti-mouse IgG-PE F_{(ab′)} (Beckman Coulter) diluted 1/100, was added to the cells and allowed to bind for 20 minutes at 4° C. Cells were washed three times with BD Stain buffer. A cocktail containing mouse anti-human CD20-FITC (BD) and CD4-APC (BD) at 1/20 dilution each was added to cells for a 20 minute incubation at 4° C. for assessment of B/T cell specificity. Cells were washed 3 times with BD Stain buffer, and resuspended in 250 μl BD Stain buffer and subjected to FACS analysis on a FACStarPlus. Commercial mouse anti-human CXCR5 mAb (R&D; MAB 190) was used as a positive control.

[2] = target: T2, N-terminal EC region of human CXCR5 …; assay: Biacore, forward format: biotin-tagged CXCR5 N-terminal peptide (aa 1-59) on the chip, antibody as analyte
Procedure: The N-terminal EC region of CXCR5 (amino acids 1-59) from human and mouse were synthesized with a terminal biotin tag, and used in a forward format Biacore assay where the peptides were immobilized on a Biacore chip and then the kinetics of antibody interaction with the peptides on the chip were determined. The synthetic peptides were immobilized on a Biacore chip for approximately 20 response units (RUs'). Then the mAb's were exposed to the chip for kinetic measurements, following the manufacturer's recommendations (GE Healthcare, Piscataway, N.J.).

[3] = target: T3, un-tagged human CXCR5 N-terminal …; assay: Biacore, reverse format: mAb captured by pre-immobilized mouse anti-human IgG Fc antibody, un-tagged peptide as analyte
Procedure: Humanized SAR113244, a form of the 16D7 humanized variant, 16D7-HC1-LC3 that carries the S241P and L248E substitutions (substitutions introduced practicing known methods and reagents, using Kabat numbering), was captured on a Biacore chip by pre-immobilized mouse anti-human IgG Fc antibody, and then used in a reverse assay format Biacore assay where the kinetics of the un-tagged human CXCR5 N-terminal peptide (amino acids 1-59) interaction with the mAb's on the chip were determined.

binding result [1]	Kd [2]	Kd [3]	Binder
no binding	1.41 pM		16D7-HC1-LC2 (antibody, V domains shown, Humanized 16D7 on an IgG4 backbone / kappa; also called Version3) VH: QVQLKESGPGLVAPSESLSITCTVSGFSLIDYGVNWIRQPPGKGLEWLGVIWGDGTTYYNPSLKSRLSISKDNSKSQVFLKVTSLTTDDTAMYYCARIVYWGQGTLVTVSA VL: DIVMTQAAPSVAVTPGASVSISCRSSKSLLHSSGKTYLYWFLQRPGQSPQLLIYRLSNLASGVPDRFSGSGSGTAFTLRISRVEAEDVGVYYCMQHLEYPYTFGGGTKLEIKR
no binding	3.11 pM		16D7-HC1-LC1 (antibody, V domains shown, Humanized 16D7 on an IgG4 backbone / kappa; also called Version1) VH: QVQLKESGPGLVAPSESLSITCTVSGFSLIDYGVNWIRQPPGKGLEWLGVIWGDGTTYYNPSLKSRLSISKDNSKSQVFLKVTSLTTDDTAMYYCARIVYWGQGTLVTVSA VL: DIVMTQAAPSVAVTPGASVSISCRSSKSLLHSSGKTYLYWFLQRPGQSPQLLIYRMSNLASGVPDRFSGSGSGTAFTLRISRVEAEDVGVYYCMQHLEYPYTFGGGTKLEIKR
	91.7 pM		16D7-HC1-LC6 (antibody, V domains shown, Leader (residues 1-19) left out by comparison with the printed variable domains) VH: QVQLKESGPGLVAPSESLSITCTVSGFSLIDYGVNWIRQPPGKGLEWLGVIWGDGTTYYNPSLKSRLSISKDNSKSQVFLKVTSLTTDDTAMYYCARIVYWGQGTLVTVSA VL: DIVMTQSALSVAVTPGESVSISCRSSKSLLHSSGKTYLYWFLQRPGQSPQLLIYRLSSLASGVPDRFSGSGSGTAFTLKISRVEAEDVGVYYCMQHLEYPYTFGGGTKLEIKR
	4.92 pM		16D7-HC3-LC4 (antibody, V domains shown, Resurfaced 16D7; VL fused to IGKC, VH fused to IGHG4 lacking the C-terminal Lys; also called Version5) VH: QVQLQESGPGLVAPSESLSITCTVSGFSLIDYGVNWIRQPPGKGLEWLGVIWGDGTTYYNPSLKSRLSISKDNSKSQVFLKMNSLTAADTAMYYCARIVYWGQGTLVTVSS VL: DIVMTQSALSVAVTPGESVSISCRSSKSLLHSSGKTYLYWFLQRPGQSPQLLIYRMSNLASGVPDRFSGSGSGTAFTLKISRVEAEDVGVYYCMQHLEYPYTFGGGTKLEIKR
	1.41 pM		mouse/human IgG4 chimeric 16D7 (antibody, V domains shown, 16D7 VH and VL on human IgG4 (IGHG4 lacking the C-terminal Lys) and kappa (IGKC); also called the hIgG4 chimera) VH: QVQLKESGPGLVAPSQSLSITCTVSGFSLIDYGVNWIRQPPGKGLEWLGVIWGDGTTYYNSALKSRLSIRKDNSQSQVFLKMNSLQTDDTAMYYCARIVYWGQGTLVTVSA VL: DIVMTQAAPSVAVTPRESVSISCRSSKSLLHSSGKTYLYWFLQRPGQSPQLLIYRMSNLASGVPDRFSGSGSGTAFTLRISRVEAEDVGVYYCMQHLEYPYTFGGGTKLEIKR
	184 pM		16D7-HC3-LC5 (antibody, V domains shown, Resurfaced 16D7; VL fused to IGKC, VH fused to IGHG4 lacking the C-terminal Lys; also called Version6) VH: QVQLQESGPGLVAPSESLSITCTVSGFSLIDYGVNWIRQPPGKGLEWLGVIWGDGTTYYNPSLKSRLSISKDNSKSQVFLKMNSLTAADTAMYYCARIVYWGQGTLVTVSS VL: DIVMTQSALSVAVTPGESVSISCRSSKSLLHSSGKTYLYWFLQRPGQSPQLLIYRLSNLASGVPDRFSGSGSGTAFTLKISRVEAEDVGVYYCMQHLEYPYTFGGGTKLEIKR
no binding	1.21 pM		16D7-HC1-LC3 (antibody, Humanized 16D7 on an IgG4 backbone / kappa; also called Version 4) heavy: not shown light: DIVMTQAAPSVAVTPGASVSISCRSSKSLLHSSGKTYLYWFLQRPGQSPQLLIYRLSSLASGVPDRFSGSGSGTAFTLRISRVEAEDVGVYYCMQHLEYPYTFGGGTKLEIKRTVAAPSVFIFPPSDEQLKSGTASVVCLLNNFYPREAKVQWKVDNALQSGNSQESVTEQDSKDSTYSLSSTLTLSKADYEKHKVYACEVTHQGLSSPVTKSFNRGEC
no binding	2.4 pM		16D7-HC2-LC1 (antibody, V domains shown, Humanized 16D7 on an IgG4 backbone / kappa; also called Version 2) VH: EVQLKESGPGLVAPGGSLSITCTVSGFSLIDYGVNWIRQPPGKGLEWLGVIWGDGTTYYNAPLKGRLSISKDNSKSQVFLQMNSLKTDDTAMYYCARIVYWGQGTLVTVSS VL: DIVMTQAAPSVAVTPGASVSISCRSSKSLLHSSGKTYLYWFLQRPGQSPQLLIYRMSNLASGVPDRFSGSGSGTAFTLRISRVEAEDVGVYYCMQHLEYPYTFGGGTKLEIKR
		11.3 pM	Humanized SAR113244 (16D7-HC1-LC3 carrying the S241P and L248E substitutions) (antibody, Leader (residues 1-19) left out as for 16D7-HC1-LC3) heavy: not shown light: DIVMTQAAPSVAVTPGASVSISCRSSKSLLHSSGKTYLYWFLQRPGQSPQLLIYRLSSLASGVPDRFSGSGSGTAFTLRISRVEAEDVGVYYCMQHLEYPYTFGGGTKLEIKRTVAAPSVFIFPPSDEQLKSGTASVVCLLNNFYPREAKVQWKVDNALQSGNSQESVTEQDSKDSTYSLSSTLTLSKADYEKHKVYACEVTHQGLSSPVTKSFNRGEC

Binder	binding result [1]	Kd [2]	Kd [3]
Mouse anti-hCXCR5 mAb clone 16D7 (antibody, V domains shown, Mouse monoclonal antibody from a hybridoma; kappa light chain; also called murine 16D7; parent 16D7 antibody) VH: QVQLKESGPGLVAPSQSLSITCTVSGFSLIDYGVNWIRQPPGKGLEWLGVIWGDGTTYYNSALKSRLSIRKDNSQSQVFLKMNSLQTDDTAMYYCARIVYWGQGTLVTVSA VL: DIVMTQAAPSVAVTPRESVSISCRSSKSLLHSSGKTYLYWFLQRPGQSPQLLIYRMSNLASGVPDRFSGSGSGTAFTLRISRVEAEDVGVYYCMQHLEYPYTFGGGTKLEIK	no binding (tested: One µg of antibody added to 50 µl PBMC)	2.16 pM	
